Test results reported in patent US20160102123A1.

What was measured:
A2_F24 VI56IV (RSV A2) = A2_F24 VI56IV (RSV A2) (UniProt P03420); experiment: Octet BLI endpoint, CR9501 on sensor, culture supernatant
B1_N67I, S215P (RSV B1) = B1_N67I, S215P (RSV B1) (UniProt O36634); experiment: quantitative Octet, CR9501 on sensor, culture supernatant
[1] = biological target: B1_N67I, S215P loop (RSV B1) (UniProt O36634); experiment: as above

Substance: CR9501 (antibody)
- % CR9501 binding after 5 days at 4 C relative to day 1 (A2_F24 VI56IV (RSV A2)): 54%
- % concentration measured with CR9501 after 5 days at 4 C relative to day of harvest (B1_N67I, S215P (RSV B1)): 90.9%
- % concentration measured with CR9501 after 5 days at 4 C relative to day of harvest [1]: 108%
